Laboratory results taken from article PMC10522976 (Molecular Therapy Oncolytics, 2023).

B1: human recombinant mesothelin (MSLN), residues 296-606, His tag (domain or fragment, UniProt Q13421 296-606, looked up)
chain: EVEKTACPSGKKAREIDESLIFYKKWELEACVDAALLATQMDRVNAIPFTYEQLDVLKHKLDELYPQGYPESVIQHLGYLFLKMSPEDIRKWNVTSLETLKALLEVNKGHEMSPQVATLIDRFVKGRGQLDKDTLDTLTAFYPGYLCSLSPEELSSVPPSSIWAVRPQDLDTCDPRQLDVLYPKARLAFQNMNGSEYFVKIQSFLGGAPTEDLKALSQQNVSMDLATFMKLRTDAVLPLTVAEVQKLLGPHVEGLKAEERHRPVRDWILRQRQDDLDTLGLGLQGGIPNGYLVLDLSMQEALSGTPCLLGP

Tests used:
[1] = target: VH-Fc 3C9 (VH 3C9 fused with human IgG1 Fc, bivalent) (human); assay: SPR
[2] = target: VH-Fc 3C9-YF750 (human); assay: ELISA
[3] = target: mouse MSLN (Mus musculus, UniProt Q61468); assay: ELISA
Sequence of mouse MSLN (Q61468 36-600): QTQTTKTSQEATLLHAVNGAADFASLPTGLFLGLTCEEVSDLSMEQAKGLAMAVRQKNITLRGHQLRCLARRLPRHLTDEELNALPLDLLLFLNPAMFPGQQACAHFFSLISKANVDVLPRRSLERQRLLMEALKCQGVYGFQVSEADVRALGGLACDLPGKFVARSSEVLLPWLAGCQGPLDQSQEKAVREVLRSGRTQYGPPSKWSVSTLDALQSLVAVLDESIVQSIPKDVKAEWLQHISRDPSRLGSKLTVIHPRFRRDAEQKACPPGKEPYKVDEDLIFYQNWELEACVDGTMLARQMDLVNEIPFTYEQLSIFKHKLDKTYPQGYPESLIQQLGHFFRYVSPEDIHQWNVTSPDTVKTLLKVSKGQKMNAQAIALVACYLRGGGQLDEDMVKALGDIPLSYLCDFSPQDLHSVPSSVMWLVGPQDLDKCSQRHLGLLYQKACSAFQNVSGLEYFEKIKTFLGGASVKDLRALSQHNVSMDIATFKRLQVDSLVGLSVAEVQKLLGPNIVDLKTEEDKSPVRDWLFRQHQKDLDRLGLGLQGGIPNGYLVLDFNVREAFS

[4] = target: B1; assay: SPR
[5] = target: B1; assay: ELISA

Binder: B1
- Kd [1]: 7 nM
- binding result [2]: binds

B2: VH 3C9 (human antibody heavy chain variable domain) (VHH)
VHH: DVQLVESGGGVVQPGRSLRLSCAASGFTFSSYAMHWVRQAPGKGLEWVSSISGNSLYKYYADSVKGRFTISRDDSTNTLYLQMNSLRAEDTATYYCTRHWAVGNWGQGTLVTVSS
- binding result [3]: no binding
- Kd [4]: < 3 nM
- EC50 [5]: < 10 nM
